Test results: article PMC7530648 (2020)
No end group written: not given here.

Biological target: T1, S8-meSRK (S8-SRK ectodomain containing 11 mutations), purified, tags removed (Brassica rapa, three sugar chains (seen in the crystal structure))
T1 chain: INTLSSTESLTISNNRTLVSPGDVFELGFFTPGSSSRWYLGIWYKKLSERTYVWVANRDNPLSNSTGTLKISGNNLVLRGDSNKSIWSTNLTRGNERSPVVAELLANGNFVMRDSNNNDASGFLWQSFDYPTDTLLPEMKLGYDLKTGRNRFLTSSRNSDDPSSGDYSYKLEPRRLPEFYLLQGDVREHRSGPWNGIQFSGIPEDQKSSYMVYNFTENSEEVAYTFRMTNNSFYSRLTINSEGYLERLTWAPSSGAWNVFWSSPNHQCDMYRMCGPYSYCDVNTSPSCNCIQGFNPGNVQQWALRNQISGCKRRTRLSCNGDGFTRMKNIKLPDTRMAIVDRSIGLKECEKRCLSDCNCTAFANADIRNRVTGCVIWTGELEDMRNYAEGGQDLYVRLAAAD
Assay: ITC

B1: biotin-S8-SP11, chemically synthesized (ligand)
chain: NLMKRCTRGFRKLGKCTTLEEEKCKTLYPRGQCTCSDSKMNTHSCDCKSC
modifications: not fully specified; cysteine pairing not given here; also: biotin-S8 (position not given here)
Q: Which Kd does the source give for B1 here?
A: 20.2 nM
